Holding throughout (experiment): negative-stain EM
The target in assay [1] is H2/1 GCN4 (SG57 head, PR8 stalk, GCN4-trimerized) (influenza A virus A/Puerto Rico/8/34/Mount Sinai(H1N1) | influenza A virus A/Singapore/1/1957(H2N2)).
Assay [2] addresses H1 GCN4 (NL09 HA, GCN4-trimerized) (influenza A virus A/Netherlands/602/2009(H1N1)).
Assay [3] has as its target H1/1 GCN4 (NL09 head, PR8 stalk, GCN4-trimerized) (influenza A virus A/Puerto Rico/8/34/Mount Sinai(H1N1) | influenza A virus A/Netherlands/602/2009(H1N1)).
In assay [4] the target is H5/1 GCN4 (IN05 head, PR8 stalk, GCN4-trimerized) (influenza A virus A/Puerto Rico/8/34/Mount Sinai(H1N1) | influenza A virus A/Indonesia/5/2005(H5N1)).

Take CR9114 Fab: the stoichiometry N (Fabs per trimer) in assay [1], in assay [2], in assay [3] and in assay [4] was 3 each time.

As usually defined, the stoichiometry N is the number of molecules, sites or subunits per partner or assembly. On to “H1/1 GCN4 (NL09 head, PR8 stalk, GCN4-trimerized) (domain or fragment)”, for which the stoichiometry N in assay [3] came to 3.

For the origin of these results see publication PMC10998906.
